These results are taken from US20240124917, “COMPOSITIONS AND METHODS FOR NUCLEIC ACID DETECTION BY LATERAL FLOW ASSAYS” (King Abdullah University of Science and Technology, published 2024).

Data set [1] concerns the target T1, VirD2-Cas9 fusion (wild-type VirD2 to wild-type SpCas9) (/ Streptococcus pyogenes, UniProt P06668;Q99ZW2 P06668:1-424,Q99ZW2:1-1368). Kind of data set: EMSA; denaturing gel mobility shift, Coomassie; 250 nM each, 10 mM MgCl2. The conditions noted are these: tags: VirD2-SpCas9 fusion, expressed in E. coli BL21(DE3).
In data set [2] the target is T2, dCas9-dVirD2 fusion (dead Cas9, dead VirD2) (Streptococcus pyogenes / Agrobacterium …, UniProt Q99ZW2 SEQ:46-1413+1453-1899). Kind of data set: EMSA; dead VirD2 does not bind RB probe. (In general: In EMSA bound probe runs differently from free probe, usually more slowly.)
In data set [3] the target is T3, VirD2-dCas9 fusion (/ Streptococcus pyogenes, UniProt Q99ZW2 SEQ:46-492+510-1877). Kind of data set: EMSA; denaturing gel mobility shift; 10 mM MgCl2.
Data set [4] addresses T4, dCas9-VirD2 fusion (Streptococcus pyogenes / Agrobacterium …, UniProt Q99ZW2 SEQ:46-1413+1453-1899). Kind of data set: EMSA; denaturing gel mobility shift; 10 mM MgCl2.
In data set [5] the target is T5, Cas9-VirD2 fusion (wild-type SpCas9 to wild-type VirD2) (Streptococcus pyogenes / Agrobacterium …, UniProt Q99ZW2;P06668 Q99ZW2:1-1368,P06668:1-424). Kind of data set: EMSA; different shift pattern; 250 nM each, 10 mM MgCl2. The note with it: tags: SpCas9-VirD2 fusion, expressed in E. coli BL21(DE3).
Data set [6] concerns the target T2, dCas9-dVirD2 fusion (dead Cas9, dead …). Kind of data set: negative control, dead VirD2; anti-biotin western. The note with it: label: 3' biotin.
Data set [7] deals with T3, VirD2-dCas9 fusion. Kind of data set: covalent binding, anti-biotin western; 10 mM MgCl2, 37 C. The note with it: label: 3' biotin.
Data set [8] addresses T1, VirD2-Cas9 fusion (wild-type VirD2 to …). The data set is described as above. The conditions noted are these: tags: VirD2-SpCas9 fusion, expressed in E. coli BL21(DE3); label: 3' biotin.
The target in data set [9] is T4, dCas9-VirD2 fusion. Described as above. The conditions noted are these: label: 3' biotin.
The target in data set [10] is T5, Cas9-VirD2 fusion (wild-type SpCas9 to …). Described as above. The note with it: tags: SpCas9-VirD2 fusion, expressed in E. coli BL21(DE3); label: 3' biotin.

B1: pstv-cnt-RB-ssDNA (ssDNA)
DNA: CAGATCAATTCTCTTAGGTTTACCCGCCAATATATCCTGTCAAACACTGATAGTTTTCACAGTAGGGTG
Consider B1, for which the binding result in data set [1] is listed as “binds”; in [2], “no binding”; with VirD2-dCas9 fusion [3], “binds”; in the data set with dCas9-VirD2 fusion [4], “binds”; in [5], “binds”.

GTTTACCCGCCAATATATCCTGTCATTTTTTTTTT (ssDNA) [virD2 reporter-B-L]: the binding result in [6] was “no binding”; with VirD2-dCas9 fusion [7], “binds”; in data set [8], “binds”; with dCas9-VirD2 fusion [9], “binds”; in data set [10], “binds”.
